Assays:
[1] = Aggregation after dialysis (removal of urea); type: physicochemical; conditions: after stepwise dialysis against PBS, 1.5 M NaCl, 0.5 M L-arginine, 1 mM EDTA, pH 7.4
Description: For RCP-1 to RCP-10 and RCP-17, each of the purified polypeptide solutions was dialyzed using SLIDE-A-LIZER (trade name, 3.5 K MWCO.). Basically, by using a dialysis buffer (PBS, 1.5 M NaCl, 0.5 M L-arginine, 1 mM EDTA, pH 7.4) as an outer dialysate, urea was removed by stepwise dialysis. The concentration of the end-product of dialysis was calculated from the absorbence at 280 nm by using NANODROP (trade name, Thermo Fisher Scientific Inc.).
Furthermore, the indices of hydrophobicity determined for each of the amino acids were summed up, the obtained value was divided by the number of the amino acids, and the outcome was determined as the GRAVY value (see Kyte J., Doolittle R. F. (1982), J. Mol. Biol, 157: 105-132). The GRAVY value is an index of the hydrophilicity and hydrophobicity of a polypeptide calculated from the degree of hydrophobicity of the amino acids contained in each polypeptide. The greater the GRAVY value, the more the polypeptide is hydrophobic, and the smaller the GRAVY value, the more the polypeptide is hydrophilic. The results are shown in Table 4. • Whether or not aggregation was occurred was evaluated based on the scale of G, A, and B as shown below. The results are summarized in Table 4. • G: The formation of an aggregate was not observed. • A: The formation of particles having a particle size of about 100 nm was observed. • B: The formation of an aggregation of particles having a particle size of equal to or greater than 1 mm was visually observed.

iPS cells = test: Evaluation of maintenance of undifferentiated state (colony form, NANOG staining); type: cell-based, human; conditions: FIGS. 4A to 4E; after culture for 1 month
Description: iPS cells collected in the same manner as in <Cell adhesiveness evaluation 1> were suspended in TeSR2. The iPS cells were seeded into 6-well plate (Tissue culture-treated, Falcon), onto which each of the samples 1, 2, 5, 6, and 7 used in <Cell adhesiveness evaluation 1> was adsorbed in the same manner as in <Cell adhesiveness evaluation 1>, and cultured in a CO2 incubator at 37° C. Except for the day after the seeding, the medium was replaced every day. In the same method as described above, the cells were subcultured every six days. FIGS. 3A to 3E show forms of the iPS cells cultured on each of the samples.
After being cultured for 1 month under the conditions described above, the cells were immobilized using 4% paraformaldehyde and treated with 1% Triton-X/PBS so as to enhance the membrane permeability. After the cells were subjected to a blocking treatment using an IMAGE IT SIGNAL ENHANCER (trade name, Invitrogen), an anti-human NANOG antibody (AF 1997, R&D Systems, Inc.), an ALEXA FLUOR 555 binding rabbit anti-goat IgG antibody (Invitrogen), and DAPI (Dojindo Molecular Technologies, Inc.) were added thereto for labeling, and the cells were imaged using a fluorescence microscope. FIGS. 4A to 4E show the fluorescence microscopic images.
FIGS. 3A and 4A show the iPS cells cultured on RCP-1; FIGS. 3B and 4B show the iPS cells cultured on RCP-11; FIGS. 3C and 4C show the iPS cells cultured on natural human vitronectin; FIGS. 3D and 4D show the iPS cells cultured on rLaminin-5; and FIGS. 3E and 4E show the iPS cells cultured on rLaminin-511. The scale bar in the images indicates […]. In FIGS. 3A to 3E, the images on the left side are full images of the colony, and the images on the right side are magnified images. In FIGS. 4A to 4E, the images on the left side are images of the cells stained with DAPI, and the images on the right side are images of the cells stained with an anti-NANOG antibody. The scale bar in FIGS. 3A to 4E indicates 200 μm.

Molecule	Aggregation [1]	NANOG expression / maintenance of undifferentiated state (iPS cells)
RCP-7: recombinant polypeptide SEQ ID NO: 20; human vitronectin positions 1-55, 270-373, C274S (protein, Synthetic peptide RCP-7, human vitronectin positions 1-55, 270-373, C274S) MDQESCKGRCTEGFNVDKKCQCDELCSYYQSCCTDYTAECKPQVTRGDVFTMPEDESQEESEGSSLSAVFEHFAMMQRDSWEDIFELLFWGRTSAGTRQPQFISRDWHGVPGQVDAAMAGRIYISGMAPRPSLAKKQRFRHRNRKGYRSQRGHSRGRNQN	A (The formation of particles having a particle size of about 100 nm was observed.)	
RCP-17: recombinant polypeptide SEQ ID NO: 39; human vitronectin positions 1-55, 270-277, 295-341, 342-373, C274S (protein, Synthetic peptide RCP-17, human vitronectin positions 1-55, 270-277, 295-341, 342-373, C274S) MDQESCKGRCTEGFNVDKKCQCDELCSYYQSCCTDYTAECKPQVTRGDVFTMPEDESQEESEGSEDIFELLFWGRTSAGTRQPQFISRDWHGVPGQVDAAMAGRIYISGMAPRPSLAKKQRFRHRNRKGYRSQRGHSRGRNQN	A (The formation of particles having a particle size of about 100 nm was observed.)	
RCP-8: recombinant polypeptide SEQ ID NO: 21; human vitronectin positions 1-55, 270-373, 374-379, C274S (protein, Synthetic peptide RCP-8, human vitronectin positions 1-55, 270-373, 374-379, C274S) MDQESCKGRCTEGFNVDKKCQCDELCSYYQSCCTDYTAECKPQVTRGDVFTMPEDESQEESEGSSLSAVFEHFAMMQRDSWEDIFELLFWGRTSAGTRQPQFISRDWHGVPGQVDAAMAGRIYISGMAPRPSLAKKQRFRHRNRKGYRSQRGHSRGRNQNSRRPSR	A (The formation of particles having a particle size of about 100 nm was observed.)	
RCP-6: recombinant polypeptide SEQ ID NO: 19; human vitronectin positions 1-55, 270-459, C274S, C411S, C453S (protein, Synthetic peptide RCP-6, human vitronectin positions 1-55, 270-459, C274S, C411S, C453S) MDQESCKGRCTEGFNVDKKCQCDELCSYYQSCCTDYTAECKPQVTRGDVFTMPEDESQEESEGSSLSAVFEHFAMMQRDSWEDIFELLFWGRTSAGTRQPQFISRDWHGVPGQVDAAMAGRIYISGMAPRPSLAKKQRFRHRNRKGYRSQRGHSRGRNQNSRRPSRATWLSLFSSEESNLGANNYDDYRMDWLVPATSEPIQSVFFFSGDKYYRVNLRTRRVDTVDPPYPRSIAQYWLGSPAPGHL	A (The formation of particles having a particle size of about 100 nm was observed.)	
Natural vitronectin: human vitronectin extracted from human blood plasma, BD Biosciences (protein, UniProt P04004 20-478, looked up) Vitronectin: DQESCKGRCTEGFNVDKKCQCDELCSYYQSCCTDYTAECKPQVTRGDVFTMPEDEYTVYDDGEEKNNATVHEQVGGPSLTSDLQAQSKGNPEQTPVLKPEEEAPAPEVGASKPEGIDSRPETLHPGRPQPPAEEELCSGKPFDAFTDLKNGSLFAFRGQYCYELDEKAVRPGYPKLIRDVWGIEGPIDAAFTRINCQGKTYLFKGSQYWRFEDGVLDPDYPRNISDGFDGIPDNVDAALALPAHSYSGRERVYFFKGKQYWEYQFQHQPSQEECEGSSLSAVFEHFAMMQRDSWEDIFELLFWGRTSAGTRQPQFISRDWHGVPGQVDAAMAGRIYISGMAPRPSLAKKQRFRHRNRKGYRSQRGHSRGRNQNSRRPSRATWLSLFSSEESNLGANNYDDYRMDWLVPATCEPIQSVFFFSGDKYYRVNLRTRRVDTVDPPYPRSIAQYWLGCPAPGHL		strongly expressed NANOG in the entirety of the colony

From patent US9938505B2, “Polypeptide composition and culture method for pluripotent stem cell using same” (FUJIFILM Corporation, priority 2013, dated 2018)
